Data: patent US20150111251A1 (AbbVie / Abbott, published 2015)

Experiments:
[1] = biological target: T1, Recombinant Human TNF-α/TNFSF1A (human, UniProt P01375 77-233); test: SPR (BIACORE), antibody captured, TNFα in solution
T1 construct: also called hTNF-α; huTNFα
Method: The BIACORE assay (Biacore, Inc, Piscataway, N.J.) determines the affinity of antibodies with kinetic measurements of on-rate and off-rate constants. Binding of antibodies to a target antigen (for example, a purified recombinant target antigen) is determined by surface plasmon resonance-based measurements with a Biacore® 1000 or 3000 instrument (Biacore® AB, Uppsala, Sweden) using running HBS-EP (10 mM HEPES [pH 7.4], 150 mM NaCl, 3 mM EDTA, and 0.005% surfactant P20) at 25° C. All chemicals are obtained from Biacore® AB (Uppsala, Sweden) or otherwise from a different source as described. For example, approximately 5000 RU of goat anti-mouse IgG, (Fcγ), fragment specific polyclonal antibody (Pierce Biotechnology Inc, Rockford, Ill.) diluted in 10 mM sodium acetate (pH 4.5) is directly immobilized across a CM5 research grade biosensor chip using a standard amine coupling kit according to manufacturer's instructions and procedures at 25 μg/ml. Unreacted moieties on the biosensor surface are blocked with ethanolamine. Modified carboxymethyl dextran surface in flowcell 2 and 4 is used as a reaction surface. Unmodified carboxymethyl dextran without goat anti-mouse IgG in flow cell 1 and 3 is used as the reference surface. For kinetic analysis, rate equations derived from the 1:1 Langmuir binding model are fitted simultaneously to association and dissociation phases of all eight injections (using global fit analysis) with the use of Biaevaluation 4.0.1 software. Purified antibodies are diluted in HEPES-buffered saline for capture across goat anti-mouse IgG specific reaction surfaces. Antibodies to be captured as a ligand (25 μg/ml) are injected over reaction matrices at a flow rate of 5 μl/minute. The association and dissociation rate constants, kₒₙ (M⁻¹ s⁻¹) and koff (s⁻¹), are determined under a continuous flow rate of 25 μl/minute. Rate constants are derived by making kinetic binding measurements at different antigen concentrations ranging from 10-200 nM. The equilibrium dissociation constant (M) of the reaction between antibodies and the target antigen is then calculated from the kinetic rate constants by the following formula: KD=koff/kₒₙ. Binding is recorded as a function of time and kinetic rate constants are calculated. In this assay, on-rates as fast as 10⁶ M⁻¹ s⁻¹ and off-rates as slow as 10⁻⁶ s⁻¹ can be measured.

[2] = biological target: T1, Recombinant Human TNF-α/TNFSF1A; test: cell-based or functional assay

T1 sequence (P01375 77-233 limits assumed): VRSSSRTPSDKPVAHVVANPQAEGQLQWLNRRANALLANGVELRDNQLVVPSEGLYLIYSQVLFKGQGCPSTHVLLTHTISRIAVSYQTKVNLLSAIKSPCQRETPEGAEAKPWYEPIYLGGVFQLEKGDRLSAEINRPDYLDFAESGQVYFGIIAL

| Binder | Kd [1] [nM] | koff [1] [s⁻¹] | kon [1] [M⁻¹ s⁻¹] | TNFα Neutralization Assay IC50 nM (L929 cells) [2] [nM] |
| --- | --- | --- | --- | --- |
| AB376 (antibody, V domains shown, Full-length humanized antibody made in HEK 293-6E; also called hMAK199VH.2a/hMAK199VL.1a) VH: EIQLVQSGAEVKKPGASVKVSCKASGYTFTNYGMNWVRQAPGQGLEWMGWINTYTGEPTYADDFKGRFTFTLDTSTSTAYMELSSLRSEDTAVYFCARKFLTTVVVTDYAMDYWGQGTTVTVSS VL: DIQMTQSPSSLSASVGDRVTITCRASQDISNYLNWYQQKPGKTVKLLIYYTSRLQSGVPSRFSGSGSGTDYTLTISSLQPEDFATYFCQQGNTLPPTFGQGTKLEIK | 1.3 | 0.0014 | 1.1e+06 | 3.65 |
| AB382 (antibody, V domains shown, Full-length humanized antibody made in HEK 293-6E; also called hMAK199VH.2b/hMAK199VL.1a) VH: EIQLVQSGAEVKKPGASVKVSCKASGYTFTNYGMNWVRQAPGQGLEWMGWINTYTGEPTYADDFKGRVTFTTDTSTSTAYMELSSLRSEDTAVYYCARKFLTTVVVTDYAMDYWGQGTTVTVSS VL: DIQMTQSPSSLSASVGDRVTITCRASQDISNYLNWYQQKPGKTVKLLIYYTSRLQSGVPSRFSGSGSGTDYTLTISSLQPEDFATYFCQQGNTLPPTFGQGTKLEIK | 2 | 0.0015 | 740000 | 1.19 |
| AB381 (antibody, V domains shown, Full-length humanized antibody made in HEK 293-6E; also called hMAK199VH.2b/hMAK199VL.1) VH: EIQLVQSGAEVKKPGASVKVSCKASGYTFTNYGMNWVRQAPGQGLEWMGWINTYTGEPTYADDFKGRVTFTTDTSTSTAYMELSSLRSEDTAVYYCARKFLTTVVVTDYAMDYWGQGTTVTVSS VL: DIQMTQSPSSLSASVGDRVTITCRASQDISNYLNWYQQKPGKAPKLLIYYTSRLQSGVPSRFSGSGSGTDFTLTISSLQPEDFATYYCQQGNTLPPTFGQGTKLEIK | 1.9 | 0.0017 | 860000 | 5.9 |
| AB383 (antibody, V domains shown, Full-length humanized antibody made in HEK 293-6E; also called hMAK199VH.2b/hMAK199VL.1b) VH: EIQLVQSGAEVKKPGASVKVSCKASGYTFTNYGMNWVRQAPGQGLEWMGWINTYTGEPTYADDFKGRVTFTTDTSTSTAYMELSSLRSEDTAVYYCARKFLTTVVVTDYAMDYWGQGTTVTVSS VL: DIQMTQSPSSLSASVGDRVTITCRASQDISNYLNWYQQKPGKAPKLLIYYTSRLQSGVPSRFSGSGSGTDYTLTISSLQPEDFATYYCQQGNTLPPTFGQGTKLEIK | 2.1 | 0.0018 | 830000 | > 20 |
| AB386 (antibody, V domains shown, Full-length humanized antibody made in HEK 293-6E; also called hMAK199VH.2b/hMAK199VL.2b) VH: EIQLVQSGAEVKKPGASVKVSCKASGYTFTNYGMNWVRQAPGQGLEWMGWINTYTGEPTYADDFKGRVTFTTDTSTSTAYMELSSLRSEDTAVYYCARKFLTTVVVTDYAMDYWGQGTTVTVSS VL: DIVMTQSPAFLSVTPGEKVTITCRASQDISNYLNWYQQKPDQAPKLLIYYTSRLQSGVPSRFSGSGSGTDYTFTISSLEAEDAATYYCQQGNTLPPTFGQGTKLEIK | 2.3 | 0.0015 | 660000 | > 20 |
| AB379 (antibody, V domains shown, Full-length humanized antibody made in HEK 293-6E; also called hMAK199VH.2a/hMAK199VL.2a) VH: EIQLVQSGAEVKKPGASVKVSCKASGYTFTNYGMNWVRQAPGQGLEWMGWINTYTGEPTYADDFKGRFTFTLDTSTSTAYMELSSLRSEDTAVYFCARKFLTTVVVTDYAMDYWGQGTTVTVSS VL: DIVMTQSPAFLSVTPGEKVTITCRASQDISNYLNWYQQKPDQTVKLLIYYTSRLQSGVPSRFSGSGSGTDYTFTISSLEAEDAATYFCQQGNTLPPTFGQGTKLEIK | 1.8 | 0.0016 | 890000 | > 20 |
| AB375 (antibody, V domains shown, Full-length humanized antibody made in HEK 293-6E; also called hMAK199VH.2a/hMAK199VL.1) VH: EIQLVQSGAEVKKPGASVKVSCKASGYTFTNYGMNWVRQAPGQGLEWMGWINTYTGEPTYADDFKGRFTFTLDTSTSTAYMELSSLRSEDTAVYFCARKFLTTVVVTDYAMDYWGQGTTVTVSS VL: DIQMTQSPSSLSASVGDRVTITCRASQDISNYLNWYQQKPGKAPKLLIYYTSRLQSGVPSRFSGSGSGTDFTLTISSLQPEDFATYYCQQGNTLPPTFGQGTKLEIK | 1.3 | 0.0011 | 900000 | 11.4 |

More lines, in order of falling Kd [1], values ahead:

| Kd [1] [nM] | koff [1] [s⁻¹] | kon [1] [M⁻¹ s⁻¹] | TNFα Neutralization Assay IC50 nM (L929 cells) [2] [nM] | Binder |
| --- | --- | --- | --- | --- |
| 2.2 | 0.0019 | 880000 | 9.76 | AB385 (antibody, V domains shown, Full-length humanized antibody made in HEK 293-6E; also called hMAK199VH.2b/hMAK199VL.2a) VH: EIQLVQSGAEVKKPGASVKVSCKASGYTFTNYGMNWVRQAPGQGLEWMGWINTYTGEPTYADDFKGRVTFTTDTSTSTAYMELSSLRSEDTAVYYCARKFLTTVVVTDYAMDYWGQGTTVTVSS VL: DIVMTQSPAFLSVTPGEKVTITCRASQDISNYLNWYQQKPDQTVKLLIYYTSRLQSGVPSRFSGSGSGTDYTFTISSLEAEDAATYFCQQGNTLPPTFGQGTKLEIK |
| 1.3 | 0.0015 | 1.2e+06 | > 20 | AB374 (antibody, V domains shown, Full-length humanized antibody made in HEK 293-6E; also called hMAK199VH.2/hMAK199VL.2b) VH: EVQLVQSGAEVKKPGASVKVSCKASGYTFTNYGMNWVRQAPGQGLEWMGWINTYTGEPTYADDFKGRVTMTTDTSTSTAYMELSSLRSEDTAVYYCARKFLTTVVVTDYAMDYWGQGTTVTVSS VL: DIVMTQSPAFLSVTPGEKVTITCRASQDISNYLNWYQQKPDQAPKLLIYYTSRLQSGVPSRFSGSGSGTDYTFTISSLEAEDAATYYCQQGNTLPPTFGQGTKLEIK |
| 1.2 | 0.0017 | 1.5e+06 | > 20 | AB371 (antibody, V domains shown, Full-length humanized antibody made in HEK 293-6E; also called hMAK199VH.2/hMAK199VL.1b) VH: EVQLVQSGAEVKKPGASVKVSCKASGYTFTNYGMNWVRQAPGQGLEWMGWINTYTGEPTYADDFKGRVTMTTDTSTSTAYMELSSLRSEDTAVYYCARKFLTTVVVTDYAMDYWGQGTTVTVSS VL: DIQMTQSPSSLSASVGDRVTITCRASQDISNYLNWYQQKPGKAPKLLIYYTSRLQSGVPSRFSGSGSGTDYTLTISSLQPEDFATYYCQQGNTLPPTFGQGTKLEIK |
| 1.2 | 0.0012 | 940000 | > 20 | AB373 (antibody, V domains shown, Full-length humanized antibody made in HEK 293-6E; also called hMAK199VH.2/hMAK199VL.2a) VH: EVQLVQSGAEVKKPGASVKVSCKASGYTFTNYGMNWVRQAPGQGLEWMGWINTYTGEPTYADDFKGRVTMTTDTSTSTAYMELSSLRSEDTAVYYCARKFLTTVVVTDYAMDYWGQGTTVTVSS VL: DIVMTQSPAFLSVTPGEKVTITCRASQDISNYLNWYQQKPDQTVKLLIYYTSRLQSGVPSRFSGSGSGTDYTFTISSLEAEDAATYFCQQGNTLPPTFGQGTKLEIK |
